Test results as given in patent US7470669B2, “Isolated polypeptide comprising a leptin fragment” (Serono Genetics Institute, S.A., priority 1999, dated 2008).

Assays:
LSR = LSR activity (oleate-induced 125I-LDL binding, uptake, degradation) in primary cultures of rat hepatocytes; format: cell-based
Procedure: FIGS. 6A, 6B, and 6C show the effect of leptin on ^125I-LDL and ^125I-chylomicron binding to LSR in primary cultures of rat hepatocytes. For FIG. 6A, primary cultures of rat hepatocytes (48 hours after plating) were incubated at 37° C. for 30 min in the absence (□) or presence (▪) of 50 ng/mL leptin in Buffer A, followed by a 20 min incubation at 37° C. with 0.5 mM oleate. The cells were then washed with ice-cold PBS, precooled for 10 min, and then incubated for 1 h at 4° C. with increasing concentrations of ^125I-LDL in Buffer A. Cells were washed, were lysed in 0.1 N NaOH and were counted for radioactivity. Results are shown as the mean of duplicate determinations. […] The media was recovered and the radioactivity was measured. […] The amount of ^125I-chylomicrons bound was determined, and results are shown as means±SD of triplicate (irrelevant) or quadruplicate (anti-LSR) determinations.
FIGS. 7A and 7B show a comparison of the effect of human and mouse leptin on LSR activity in rat hepatocytes and on postprandial increase in plasma TG in db^Pas/db^Pas mice. […] The media were removed and were analyzed for TCA-soluble degradation products. […] The data represent the difference in TG concentrations measured at t=0 and the average of the concentrations at 3 and 4 hours. […]

ob/ob mice = experiment: Food intake of ob/ob mice under daily subcutaneous injections; format: in vivo, mouse; conditions: daily subcutaneous injections of 25 μg over a 12 day period
Procedure: A synthetic peptide with a sequence identical to that of mouse leptin between residues 117-138 was obtained and found to stimulate the oleate-induced binding of ^125I-LDL in primary cultures of rat hepatocytes (FIG. 11B, insert). Daily subcutaneous injections of 25 μg of this synthetic leptin peptide to ob/ob mice had no effect on the food intake over a 12 day period (7.6±0.4 g/day in ob/ob receiving saline and 6.7±0.3 g/day in ob/ob receiving peptide; n=4, NS). Daily injections of 25 μg of mouse leptin caused a reduction of food intake to 4.7±0.5 g/day (n=3; p<0.003 versus controls).

B1: mouse leptin: recombinant mouse leptin, laboratory-prepared or commercial (Sigma, Calbiochem) (protein, UniProt P41160 22-167, looked up)
Leptin: VPIQKVQDDTKTLIKTIVTRINDISHTQSVSAKQRVTGLDFIPGLHPILSLSKMDQTLAVYQQVLTSLPSQNVLQIANDLENLRDLLHLLAFSKSCSLPQTSGLQKPESLDGVLEASLYSTEVVALSRLQGSLQDILQQLDVSPEC
stimulation of LSR-mediated LDL degradation in primary cultures of rat hepatocytes (LSR; 10 ng/mL recombinant leptin): more efficient than human leptin | oleate-induced 125I-LDL binding to the cell surface (LSR; rat hepatocytes, 30 min preincubation with 20 ng/mL at 37° C., binding at 4° C.): increased | food intake (ob/ob mice): 4.7 ± 0.5 g/day
